Results reported in patent US10023882B1, “Hetero-oligomers of (S)-carbonyl reductases and their applications in catalyzing reduction of polyphenyl ketones” (Jiangnan University, priority 2017, dated 2018).
Entries after “also recorded” stand apart in the source; their conditions may differ.

T1: His-SCR2, (S)-carbonyl reductase SCR2 of Candida parapsilosis with N-terminal His-tag, expressed from pET28-His-SCR2
T1 chain: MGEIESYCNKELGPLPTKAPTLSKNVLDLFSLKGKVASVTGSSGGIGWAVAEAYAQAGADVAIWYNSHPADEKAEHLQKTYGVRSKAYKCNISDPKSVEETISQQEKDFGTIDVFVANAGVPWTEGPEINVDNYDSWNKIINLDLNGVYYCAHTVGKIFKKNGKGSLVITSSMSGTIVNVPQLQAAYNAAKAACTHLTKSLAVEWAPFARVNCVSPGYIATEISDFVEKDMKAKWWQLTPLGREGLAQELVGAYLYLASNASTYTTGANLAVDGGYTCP

T2: SCR3, (S)-carbonyl reductase of Candida parapsilosis, as in the hetero-oligomer SCR/SCR3
T2 chain: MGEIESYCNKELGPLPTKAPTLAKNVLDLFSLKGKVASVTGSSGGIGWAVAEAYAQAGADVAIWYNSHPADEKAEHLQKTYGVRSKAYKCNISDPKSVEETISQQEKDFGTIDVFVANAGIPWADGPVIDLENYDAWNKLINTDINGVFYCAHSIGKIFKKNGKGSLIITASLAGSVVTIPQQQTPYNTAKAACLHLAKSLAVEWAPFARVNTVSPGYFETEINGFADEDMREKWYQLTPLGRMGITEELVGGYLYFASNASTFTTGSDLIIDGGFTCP

T3: SCR3, (S)-carbonyl reductase of Candida parapsilosis, as in the hetero-oligomer SCR/SCR3 (Candida parapsilosis, UniProt G8BHG5 1-279)
T3 sequence: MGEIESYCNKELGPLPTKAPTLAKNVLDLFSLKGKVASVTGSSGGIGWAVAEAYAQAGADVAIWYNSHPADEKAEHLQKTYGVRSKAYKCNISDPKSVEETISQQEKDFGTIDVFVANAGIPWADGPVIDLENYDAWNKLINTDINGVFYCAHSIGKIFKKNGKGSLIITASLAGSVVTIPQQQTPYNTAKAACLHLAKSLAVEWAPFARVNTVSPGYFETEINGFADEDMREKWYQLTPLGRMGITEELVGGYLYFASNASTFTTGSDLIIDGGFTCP

T4: His-SCR3, (S)-carbonyl reductase SCR3 of Candida parapsilosis with N-terminal His-tag, expressed from pET28-His-SCR3
T4 chain: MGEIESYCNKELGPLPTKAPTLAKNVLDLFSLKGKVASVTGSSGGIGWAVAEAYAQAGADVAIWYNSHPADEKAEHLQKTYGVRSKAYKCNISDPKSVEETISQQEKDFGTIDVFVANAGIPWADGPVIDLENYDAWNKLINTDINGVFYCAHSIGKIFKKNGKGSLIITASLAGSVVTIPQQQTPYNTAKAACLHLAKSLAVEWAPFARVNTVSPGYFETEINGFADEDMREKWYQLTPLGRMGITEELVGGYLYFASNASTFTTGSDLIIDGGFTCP

B1: Strep-SCR, (S)-carbonyl reductase SCR of Candida parapsilosis with N-terminal Strep-tag, expressed from pET21-Strep-SCR (protein)
chain: MGEIESYCNKELGPLPTKAPTLSKNVLDLFSLKGKVASVTGSSGGIGWAVAEAYAQAGADVAIWYNSHPADEKAEHLQKTYGVHSKAYKCNISDPKSVEETISQQEKDFGTIDVFVANAGVTWTQGPEIDVDNYDSWNKIISVDLNGVYYCSHNIGKIFKKNGKGSLIITSSISGKIVNIPQLQAPYNTAKAACTHLAKSLAIEWAPFARVNTISPGYIDTDITDFASKDMKAKWWQLTPLGREGLTQELVGGYLYLASNASTFTTGSDVVIDGGYTCP
B2: SCR: homo-oligomer (S)-carbonyl reductase from Candida parapsilosis, amino acid sequence SEQ ID NO: 1 (protein, listed as Candida parapsilosis)
chain: MGEIESYCNKELGPLPTKAPTLSKNVLDLFSLKGKVASVTGSSGGIGWAVAEAYAQAGADVAIWYNSHPADEKAEHLQKTYGVHSKAYKCNISDPKSVEETISQQEKDFGTIDVFVANAGVTWTQGPEIDVDNYDSWNKIISVDLNGVYYCSHNIGKIFKKNGKGSLIITSSISGKIVNIPQLQAPYNTAKAACTHLAKSLAIEWAPFARVNTISPGYIDTDITDFASKDMKAKWWQLTPLGREGLTQELVGGYLYLASNASTFTTGSDVVIDGGYTCP
B3: SCR, (S)-carbonyl reductase of Candida parapsilosis, as in the hetero-oligomer SCR/SCR3 (enzyme)
chain: MGEIESYCNKELGPLPTKAPTLSKNVLDLFSLKGKVASVTGSSGGIGWAVAEAYAQAGADVAIWYNSHPADEKAEHLQKTYGVHSKAYKCNISDPKSVEETISQQEKDFGTIDVFVANAGVTWTQGPEIDVDNYDSWNKIISVDLNGVYYCSHNIGKIFKKNGKGSLIITSSISGKIVNIPQLQAPYNTAKAACTHLAKSLAIEWAPFARVNTISPGYIDTDITDFASKDMKAKWWQLTPLGREGLTQELVGGYLYLASNASTFTTGSDVVIDGGYTCP
B4: SCR3: homo-oligomer (S)-carbonyl reductase from Candida parapsilosis, amino acid sequence SEQ ID NO: 3 (protein, listed as Candida parapsilosis)
chain: MGEIESYCNKELGPLPTKAPTLAKNVLDLFSLKGKVASVTGSSGGIGWAVAEAYAQAGADVAIWYNSHPADEKAEHLQKTYGVRSKAYKCNISDPKSVEETISQQEKDFGTIDVFVANAGIPWADGPVIDLENYDAWNKLINTDINGVFYCAHSIGKIFKKNGKGSLIITASLAGSVVTIPQQQTPYNTAKAACLHLAKSLAVEWAPFARVNTVSPGYFETEINGFADEDMREKWYQLTPLGRMGITEELVGGYLYFASNASTFTTGSDLIIDGGFTCP
B5: Strep-SCR2, (S)-carbonyl reductase SCR2 of Candida parapsilosis with N-terminal Strep-tag, expressed from pET21-Strep-SCR2 (protein)
chain: MGEIESYCNKELGPLPTKAPTLSKNVLDLFSLKGKVASVTGSSGGIGWAVAEAYAQAGADVAIWYNSHPADEKAEHLQKTYGVRSKAYKCNISDPKSVEETISQQEKDFGTIDVFVANAGVPWTEGPEINVDNYDSWNKIINLDLNGVYYCAHTVGKIFKKNGKGSLVITSSMSGTIVNVPQLQAAYNAAKAACTHLTKSLAVEWAPFARVNCVSPGYIATEISDFVEKDMKAKWWQLTPLGREGLAQELVGAYLYLASNASTYTTGANLAVDGGYTCP

Assays:
[1] = biological target: T1, His-SCR2, (S)-carbonyl reductase SCR2 …
[2] = Reductive activity assay towards 2-acetonaphthone (NADPH oxidation, absorbance at 340 nm); assay type: biochemical; settings: purified enzyme, 0.5 mM NADPH, 1 mM substrate, 30° C.
Method: (§1) (1) Principle and definition: The enzyme activity for the reduction of prochiral ketones to chiral alcohols by homo-oligomers was determined with purified enzymes by measuring the decrease in absorbance at 340 nm resulting from the oxidation of NADPH. Protein concentration was determined by Beyotime (Shanghai, China) using bovine serum albumin as a standard.
(§2) (2) Enzyme activity assay conditions (250 ul): 0.5 mmol·L^−1 NADPH, 1 mmol·L^−1 substrate (2,4-dichlorobenzophenone, 2-naphthyl ketone, or [(E)-2-[3-[3-[2-(7-chloro-2-quinolinyl)ethenyl]phenyl]-3-oxopropyl]benzoic acid methyl ester (Keto Easter M).). Incubate the mixture at 30° C. for 2 min, then add appropriate amount of enzyme, and finally measure the absorbance at 340 nm wavelength.
(§3) Formula for calculating enzyme activity is: Enzyme activity (U)=EW×V×10^3/(6220×0.15), and formula for calculating relative enzyme activity is: relative enzyme activity (U/mg)=enzyme activity (U)/protein content (mg), wherein EW is the measured change of absorbance at 340 nm in 1 min; V is the reaction volume (mL); the molar absorption coefficient (L mol^−1 cm^−1) is 6220; and the optical length is 0.15 cm.
(§4) One unit of the enzyme activity is defined as the amount of enzyme catalyzing the formation and oxidation of 1 μmol of NAD(P)H per minute under measurement conditions.
(§5) Enzyme activity assay system (250 ul) contained 0.5 mM NADPH, 1 mM substrate (i.e. 2-acetonaphthone) and appropriate amount of enzyme. The reaction mixture was incubated at 30° C. for 2 min, the appropriate amount of enzyme was added, and finally the absorption change was scanned at 340 nm wavelength. The calculated relative enzyme activity of SCR/SCR2 was 2.43 U/mg towards 2-acetonaphthone.

[3] = Reductive activity assay towards 2,4-dichlorobenzophenone (NADPH oxidation, absorbance at 340 nm); assay type: biochemical; settings: purified enzyme, 0.5 mM NADPH, 1 mM substrate, 30° C.
Method: as §1, §2, §3, §4
as §5, with “2,4-dichlorobenzophenone)” for “2-acetonaphthone)”, “and SCR2/SCR3 were 4.55 U/mg and 4.42” for “was 2.43”, “2,4-dichlorobenzophenone, respectively.” for “2-acetonaphthone.”

[4] = Reductive activity assay towards Keto Easter M (NADPH oxidation, absorbance at 340 nm); assay type: biochemical; settings: purified enzyme, 0.5 mM NADPH, 1 mM substrate, 30° C.
Method: as §1, §2, §3, §4
as §5, with “[(E)-2-[3-[3-[2-(7-chloro-2-quinolinyl)ethenyl]phenyl]-3-oxopropyl]benzoic acid methyl ester (Keto Easter M)” for “2-acetonaphthone)”, “and SCR2/SCR3 were 0.86 U/mg and 1.21” for “was 2.43”, “[(E)-2-[3-[3-[2-(7-chloro-2-quinolinyl)ethenyl]phenyl]-3-oxopropyl]benzoic acid methyl ester (Keto Easter M), respectively.” for “2-acetonaphthone.”

[5] = biological target: T2, SCR3, (S)-carbonyl reductase of Candida …
[6] = biological target: T3, SCR3, (S)-carbonyl reductase of Candida …; experiment: method not described for this pair
[7] = biological target: T4, His-SCR3, (S)-carbonyl reductase SCR3 …

Molecule | relative enzyme activity (specific activity) towards 2-acetonaphthone [2] | relative enzyme activity (specific activity) towards 2,4-dichlorobenzophenone [3] | relative enzyme activity (specific activity) towards Keto Easter M [4] | also measured
B1 | – | – | – | relative enzyme activity towards 2,4-dichlorobenzophenone [1]: 4.55 U/mg; relative enzyme activity towards 2-acetonaphthone [1]: 2.43 U/mg; relative enzyme activity towards [(E)-2-[3-[3-[2-(7-chloro-2-quinolinyl)ethenyl]phenyl]-3-oxopropyl]benzoic acid methyl ester (Keto Easter M) [1]: 0.86 U/mg
B2 | no specific activity is observed; also recorded: no enzyme activities were detected | no specific activity is observed; also recorded: no enzyme activities were detected | no specific activity is observed; also recorded: no enzyme activities were detected | –
B3 | – | – | – | activities to polyphenyl ketones [5]: also showed some activities to polyphenyl ketones; binding result [6]: binds
B4 | no specific activity is observed; also recorded: no enzyme activities were detected | no specific activity is observed; also recorded: no enzyme activities were detected | no specific activity is observed; also recorded: no enzyme activities were detected | –
B5 | no specific activity is observed; also recorded: no enzyme activities were detected | no specific activity is observed; also recorded: no enzyme activities were detected | no specific activity is observed; also recorded: no enzyme activities were detected | relative enzyme activity towards 2,4-dichlorobenzophenone [7]: 4.42 U/mg; relative enzyme activity towards [(E)-2-[3-[3-[2-(7-chloro-2-quinolinyl)ethenyl]phenyl]-3-oxopropyl]benzoic acid methyl ester (Keto Easter M) [7]: 1.21 U/mg
